Data as given in paper PMC10855146, “Secondary Modification of S100B Influences Anti Amyloid-β Aggregation Activity and Alzheimer’s Disease Pathology” (International Journal of Molecular Sciences, 2024).
One block for each binder: values may come before it.

Columns and labels:
[1] = molecular target: Human recombinant amyloid beta 42 (human, UniProt P05067 672-713); test: cell-based or functional assay
[2] = molecular target: the molecule itself; test: SEC; analytical size-exclusion chromatography, Superdex 75 Tricorn, room temperature, 1 mL/min, 50 mM TrisHCl pH 7.4, imidazole as internal standard

Sequence of Human recombinant amyloid beta 42 (P05067 672-713): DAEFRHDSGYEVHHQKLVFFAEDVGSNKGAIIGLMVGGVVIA

half-time of ThT-monitored aggregation of monomeric Aβ42 (5 μM) with a 10-fold excess of S100B (0.9 h for Aβ42 alone) [1]: 4.5 h
B1: Human S100B (natural protein, UniProt P04271 1-92, looked up)
chain: MSELEKAMVALIDVFHQYSGREGDKHKLKKSELKELINNELSHFLEEIKEQEVVDKVMETLDNDGDGECDFQEFMAFVAMVTTACHEFFEHE
notes: S100B, human, recombinant; also called non-oxidized S100B; unmodified S100B; source: apo form eluted on Superdex S75
stoichiometry N [2]: 2

blocking of Aβ42 fibril elongation in seeded ThT aggregation assays (5 μM Aβ42, 4-fold excess of S100Box, 0.04 µM pre-formed fibrils), against S100B [1]: ~3 fold against S100B | half-time of ThT-monitored aggregation of monomeric Aβ42 (5 μM) with a 10-fold excess of S100Box (0.9 h for Aβ42 alone) [1]: 8.5 h
B2: Oxidized S100B (HClO-treated recombinant human S100B) (natural protein, UniProt P04271 1-92, looked up)
chain: B1 chain
modifications: up to three methionine sulfoxide residues per S100Box monomer (positions not given); no Cys oxidation
notes: S100B, human, recombinant, oxidized with HClO; also called S100Box; S100ox
stoichiometry N [2]: 2
